According to IntAct's records for PubMed 17350572:

B1: Gag polyprotein (Equine infectious anemia virus (isolate 1369) (EIAV)), P69730 (parent)
chain: MGDPLTWSKALKKLEKVTVQGSQKLTTGNCNWALSLVDLFHDTNFVKEKDWQLRDVIPLLEDVTQTLSGQEREAFERTWWAISAVKMGLQINNVVDGKASFQLLRAKYEKKTANKKQSEPSEEYPIMIDGAGNRNFRPLTPRGYTTWVNTIQTNGLLNEASQNLFGILSVDCTSEEMNAFLDVVPGQAGQKQILLDAIDKIADDWDNRHPLPNAPLVAPPQGPIPMTARFIRGLGVPRERQMEPAFDQFRQTYRQWIIEAMSEGIKVMIGKPKAQNIRQGAKEPYPEFVDRLLSQIKSEGHPQEISKFLTDTLTIQNANEECRNAMRHLRPEDTLEEKMYACRDIGTTKQKMMLLAKALQTGLAGPFKGGALKGGPLKAAQTCYNCGKPGHLSSQCRAPKVCFKCKQPGHFSKQCRSVPKNGKQGAQGRPQKQTFPIQQKSQHNKSVVQETPQTQNLYPDLSEIKKEYNVKEKDQVEDLNLDSLWE
B2: Programmed cell death 6-interacting protein (Homo sapiens), Q8WUM4 (parent)
chain: MATFISVQLKKTSEVDLAKPLVKFIQQTYPSGGEEQAQYCRAAEELSKLRRAAVGRPLDKHEGALETLLRYYDQICSIEPKFPFSENQICLTFTWKDAFDKGSLFGGSVKLALASLGYEKSCVLFNCAALASQIAAEQNLDNDEGLKIAAKHYQFASGAFLHIKETVLSALSREPTVDISPDTVGTLSLIMLAQAQEVFFLKATRDKMKDAIIAKLANQAADYFGDAFKQCQYKDTLPKEVFPVLAAKHCIMQANAEYHQSILAKQQKKFGEEIARLQHAAELIKTVASRYDEYVNVKDFSDKINRALAAAKKDNDFIYHDRVPDLKDLDPIGKATLVKSTPVNVPISQKFTDLFEKMVPVSVQQSLAAYNQRKADLVNRSIAQMREATTLANGVLASLNLPAAIEDVSGDTVPQSILTKSRSVIEQGGIQTVDQLIKELPELLQRNREILDESLRLLDEEEATDNDLRAKFKERWQRTPSNELYKPLRAEGTNFRTVLDKAVQADGQVKECYQSHRDTIVLLCKPEPELNAAIPSANPAKTMQGSEVVNVLKSLLSNLDEVKKEREGLENDLKSVNFDMTSKFLTALAQDGVINEEALSVTELDRVYGGLTTKVQESLKKQEGLLKNIQVSHQEFSKMKQSNNEANLREEVLKNLATAYDNFVELVANLKEGTKFYNELTEILVRFQNKCSDIVFARKTERDELLKDLQQSIAREPSAPSIPTPAYQSSPAGGHAPTPPTPAPRTMPPTKPQPPARPPPPVLPANRAPSATAPSPVGAGTAAPAPSQTPGSAPPPQAQGPPYPTYPGYPGYCQMPMPMGYNPYAYGQYNMPYPPVYHQSPGQAPYPGPQQPSYPFPQPPQQSYYPQQ
partner: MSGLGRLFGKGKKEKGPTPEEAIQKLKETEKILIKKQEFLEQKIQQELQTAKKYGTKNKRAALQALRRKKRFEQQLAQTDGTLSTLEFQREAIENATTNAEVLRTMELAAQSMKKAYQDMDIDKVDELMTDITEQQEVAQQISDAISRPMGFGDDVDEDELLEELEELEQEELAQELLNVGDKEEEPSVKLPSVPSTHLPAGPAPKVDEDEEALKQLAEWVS
B3: Programmed cell death 6-interacting protein (Homo sapiens), Q8WUM4 (parent)
chain: B2 chain
partner: B1 chain
B4: Programmed cell death 6-interacting protein (Homo sapiens), Q8WUM4 (parent)
chain: B2 chain

Variants of: B1
Conditions: with pdc6i_human PDCD6IP

Row | Variant | effect of a mutation on the interaction
1 | Y458S;P459R | decreasing interaction

Variants of: B2
Conditions: with chm4a_human CHMP4A

Row | Variant | effect of a mutation on the interaction
2 | I212D | disrupting interaction

Variants of: B3
Conditions: with gag_eiav9 gag

Row | Variant | effect of a mutation on the interaction
3 | F676D | disrupting interaction
4 | I683D | decreasing interaction
5 | V498D | decreasing interaction

Variants of: B4
Conditions: with gag_hv1b1 gag

Row | Variant | effect of a mutation on the interaction
6 | F676D | disrupting interaction
7 | V498D | disrupting interaction
8 | I683D | decreasing interaction

Variants of: B4
Conditions: with ts101_human TSG101, Q99816
ts101_human TSG101, Q99816, sequence (Q99816 whole entry): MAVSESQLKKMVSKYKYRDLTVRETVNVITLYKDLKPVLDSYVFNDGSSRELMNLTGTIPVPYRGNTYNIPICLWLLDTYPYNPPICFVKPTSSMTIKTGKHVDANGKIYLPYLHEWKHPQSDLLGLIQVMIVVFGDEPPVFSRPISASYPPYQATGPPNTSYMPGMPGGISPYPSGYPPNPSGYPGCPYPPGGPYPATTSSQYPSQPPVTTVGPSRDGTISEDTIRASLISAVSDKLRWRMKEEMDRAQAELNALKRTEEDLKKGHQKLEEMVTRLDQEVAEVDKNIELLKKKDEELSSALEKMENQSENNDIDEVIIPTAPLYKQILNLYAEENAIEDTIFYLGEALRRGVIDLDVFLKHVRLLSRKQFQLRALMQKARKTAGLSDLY

Row | Variant | effect of a mutation on the interaction
9 | P720L | disrupting interaction

Variants of: B4
Conditions: with sh3g2_human SH3GL2, Q99962
sh3g2_human SH3GL2, Q99962, sequence (Q99962 whole entry): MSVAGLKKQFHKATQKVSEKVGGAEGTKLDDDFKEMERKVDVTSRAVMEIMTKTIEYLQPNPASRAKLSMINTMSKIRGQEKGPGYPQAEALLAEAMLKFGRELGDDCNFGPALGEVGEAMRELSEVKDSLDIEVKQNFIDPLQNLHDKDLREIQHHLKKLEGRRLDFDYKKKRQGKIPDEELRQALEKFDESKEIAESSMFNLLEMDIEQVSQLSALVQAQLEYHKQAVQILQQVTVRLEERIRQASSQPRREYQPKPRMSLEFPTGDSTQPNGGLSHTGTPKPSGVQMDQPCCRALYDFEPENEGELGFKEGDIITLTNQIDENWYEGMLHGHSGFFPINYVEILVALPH

Row | Variant | effect of a mutation on the interaction
10 | R757A;P758A | decreasing interaction
